Blank lines part the entries; values can stand above or below the binder they belong to.
Molecular target: elongation initiation factor 4E (eIF4E), P06730
Assay: SPR (Biacore T100), eIF4E immobilised on CM5 chip, peptide as analyte
Details: remark: other sources report otherwise

elongation initiation factor 4E (eIF4E), P06730, sequence (P06730 2-217 limits assumed): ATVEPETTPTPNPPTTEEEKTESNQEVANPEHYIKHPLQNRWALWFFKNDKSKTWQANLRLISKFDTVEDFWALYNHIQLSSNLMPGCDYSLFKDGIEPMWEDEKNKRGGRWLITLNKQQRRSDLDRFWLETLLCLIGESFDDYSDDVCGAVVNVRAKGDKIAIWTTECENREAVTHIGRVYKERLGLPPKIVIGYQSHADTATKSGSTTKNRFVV

Kd: 11 µM
B1: EE-2A (peptide)
peptide: ACAMGFFQDCG
HELM: PEPTIDE1{A.C.A.M.G.F.F.Q.D.C.G.[am]}$PEPTIDE1,PEPTIDE1,2:R3-10:R3$$$V2.0
SMILES: CSCC[C@@H]1NC(=O)[C@H](C)NC(=O)[C@@H](NC(=O)[C@H](C)N)CSSC[C@@H](C(=O)NCC(N)=O)NC(=O)[C@H](CC(=O)O)NC(=O)[C@H](CCC(N)=O)NC(=O)[C@H](Cc2ccccc2)NC(=O)[C@H](Cc2ccccc2)NC(=O)CNC1=O

Kd: 32 µM
B2: EE-2C (peptide)
peptide: ACEMAFFQDCG
HELM: PEPTIDE1{A.C.E.M.A.F.F.Q.D.C.G.[am]}$PEPTIDE1,PEPTIDE1,2:R3-10:R3$$$V2.0
SMILES: CSCC[C@@H]1NC(=O)[C@H](CCC(=O)O)NC(=O)[C@@H](NC(=O)[C@H](C)N)CSSC[C@@H](C(=O)NCC(N)=O)NC(=O)[C@H](CC(=O)O)NC(=O)[C@H](CCC(N)=O)NC(=O)[C@H](Cc2ccccc2)NC(=O)[C@H](Cc2ccccc2)NC(=O)[C@H](C)NC1=O

Source: patent publication US20220242906A1
